# How the values were obtained:
# [1] = biological target: HLA-B*15:01; experiment: IEDB peptide-MHC binding, purified MHC/competitive/radioactivity; filed as Kd, often an IC50 or EC50 that approximates it; ≥ and ≤ were set here for values at or beyond the usual limits of such assays
# [2] = biological target: HLA-B*35:01; experiment: as above
# [3] = biological target: HLA-B*53:01; experiment: as above
# [4] = biological target: HLA-B*57:01; experiment: IEDB peptide-MHC binding, purified MHC/direct/fluorescence; filed as Kd, often an IC50 or EC50 that approximates it; ≥ and ≤ were set here for values at or beyond the usual limits of such assays; settings: source organism: Campylobacter jejuni
# [5] = biological target: HLA-B*58:01; experiment: as above
# [6] = biological target: HLA-A*02:02; experiment: IEDB peptide-MHC binding, purified MHC/competitive/radioactivity; filed as Kd, often an IC50 or EC50 that approximates it; ≥ and ≤ were set here for values at or beyond the usual limits of such assays; settings: source organism: Vaccinia virus WR
# [7] = biological target: HLA-A*02:03; experiment: as above; settings: source organism: Vaccinia virus WR
# [8] = biological target: HLA-A*02:06; experiment: as above; settings: source organism: Vaccinia virus WR
# [9] = biological target: HLA-B*08:01; experiment: as above; settings: source organism: Vaccinia virus WR
# [10] = biological target: HLA-A*24:03; experiment: IEDB peptide-MHC binding, purified MHC/direct/fluorescence; filed as Kd, often an IC50 or EC50 that approximates it; ≥ and ≤ were set here for values at or beyond the usual limits of such assays
# [11] = biological target: HLA-A*23:01; experiment: IEDB peptide-MHC binding, purified MHC/competitive/radioactivity; filed as Kd, often an IC50 or EC50 that approximates it; ≥ and ≤ were set here for values at or beyond the usual limits of such assays
# [12] = biological target: HLA-A*24:02; experiment: as above
# [13] = biological target: HLA-A*29:02; experiment: as above; settings: source organism: Mammarenavirus machupoense
# [14] = biological target: HLA-A*32:01; experiment: as above; settings: source organism: Vaccinia virus WR
# [15] = biological target: HLA-A*30:01; experiment: as above; settings: source organism: Vaccinia virus WR
# [16] = biological target: HLA-A*30:02; experiment: as above; settings: source organism: Dengue virus 2 Jamaica/1409/1983
# [17] = biological target: HLA-A*01:01; experiment: IEDB peptide-MHC binding, purified MHC/direct/fluorescence; filed as Kd, often an IC50 or EC50 that approximates it; ≥ and ≤ were set here for values at or beyond the usual limits of such assays
# [18] = biological target: HLA-A*02:01; experiment: as above
# [19] = biological target: HLA-A*03:01; experiment: as above
# [20] = biological target: HLA-A*11:01; experiment: as above
# [21] = biological target: HLA-A*26:01; experiment: as above
# [22] = biological target: HLA-A*31:01; experiment: as above
# [23] = biological target: HLA-A*69:01; experiment: as above
# [24] = biological target: HLA-B*07:02; experiment: as above
# [25] = biological target: HLA-B*08:01; experiment: as above
# [26] = biological target: HLA-B*15:01; experiment: as above
# [27] = biological target: HLA-B*27:05; experiment: as above
# [28] = biological target: HLA-B*40:01; experiment: as above
# [29] = biological target: HLA-B*44:02; experiment: as above
# [30] = biological target: HLA-B*51:01; experiment: IEDB peptide-MHC binding, purified MHC/competitive/fluorescence; filed as Kd, often an IC50 or EC50 that approximates it; ≥ and ≤ were set here for values at or beyond the usual limits of such assays; settings: source organism: Listeria monocytogenes FSL J1-194
# [31] = biological target: HLA-A*02:01; experiment: as above
# [32] = biological target: HLA-B*15:01; experiment: as above
# [33] = biological target: HLA-B*39:01; experiment: as above; settings: source organism: Vibrio parahaemolyticus AQ3810
# [34] = biological target: HLA-A*01:01; experiment: IEDB peptide-MHC binding, purified MHC/competitive/radioactivity; filed as Kd, often an IC50 or EC50 that approximates it; ≥ and ≤ were set here for values at or beyond the usual limits of such assays; settings: source organism: Dengue virus 2 Jamaica/1409/1983
# [35] = biological target: HLA-A*26:01; experiment: as above; settings: source organism: Dengue virus 2 Jamaica/1409/1983
# [36] = biological target: HLA-B*46:01; experiment: IEDB peptide-MHC binding, purified MHC/competitive/fluorescence; filed as Kd, often an IC50 or EC50 that approximates it; ≥ and ≤ were set here for values at or beyond the usual limits of such assays; settings: source organism: Haemophilus influenzae R3021
# [37] = source organism: Dengue virus 1 Brazil/97-11/1997
# [38] = source organism: Vaccinia virus WR
# [39] = source organism: Mammarenavirus machupoense
# [40] = source organism: Dengue virus 4 Philippines/H241/1956
# [41] = source organism: Dengue virus 2 Jamaica/1409/1983
# [42] = source organism: Vibrio vulnificus
# [43] = source organism: Rickettsia sibirica
# [44] = source organism: Shigella dysenteriae
# [45] = source organism: Escherichia coli O139:H28 str. E24377A
# [46] = source organism: Cryptosporidium parvum
# [47] = source organism: Giardia lamblia ATCC 50803
# [48] = source organism: Haemophilus influenzae
sequence,measurement,setting,value
IAMTDTTPF,Kd,[1]; [37],4.25 nM
same,Kd,[2]; [37],1.18 nM
same,Kd,[3]; [37],172 nM
KSNKIRGRM,Kd,[4],988 nM
same,Kd,[5]; source organism: Campylobacter jejuni,192 nM
SVIFYFISI,Kd,[6],155 nM
same,Kd,[7],75 nM
same,Kd,[8],0.169 nM
same,Kd,[1]; [38],335 nM
MKLVMAFIAF,Kd,[2]; [37],1830 nM
FIAKHFLEL,Kd,[9],1.3 nM
same,Kd,[1]; [38],6500 nM
PYENLLYKL,Kd,[10]; source organism: Mammarenavirus paranaense,785 nM
same,Kd,[11]; [39],81.5 nM
same,Kd,[12]; [39],521 nM
same,Kd,[13],2340 nM
IANQAAVLM,Kd,[2]; [40],75.1 nM
SLCKLNNVF,Kd,[14],927 nM
same,Kd,[1]; [38],16 nM
RIRNKFMFI,Kd,[15],0.0693 nM
same,Kd,[9],1.58 nM
same,Kd,[1]; [38],766 nM
LMRRGDLPVW,Kd,[1]; [41],159 nM
GINKRSTPF,Kd,[1]; source organism: Vaccinia virus Copenhagen,0.723 nM
GYQHKTLAI,Kd,[10]; [42],6.5 nM
ASITAFKSM,Kd,[1]; [38],25 nM
LIKVLVEHG,Kd,[1]; [38],621 nM
KQEHETSWHY,Kd,[16],≥ 69700 nM
same,Kd,[1]; [41],125 nM
ASDRISGIL,Kd,[17]; [43],6550 nM
same,Kd,[18]; [43],≥ 20000 nM
same,Kd,[19]; [43],≥ 20000 nM
same,Kd,[20]; [43],≥ 20000 nM
same,Kd,[10]; [43],≥ 20000 nM
same,Kd,[21]; [43],≥ 20000 nM
same,Kd,[22]; [43],≥ 20000 nM
same,Kd,[23]; [43],≥ 20000 nM
same,Kd,[24]; [43],14600 nM
same,Kd,[25]; [43],≥ 20000 nM
same,Kd,[26]; [43],5160 nM
same,Kd,[27]; [43],≥ 20000 nM
same,Kd,[28]; [43],1460 nM
same,Kd,[29]; [43],≥ 20000 nM
same,Kd,[5]; [43],≥ 20000 nM
LKYAPFFQV,Kd,[30],≥ 20000 nM
KNNNEFAFF,Kd,[1]; [38],1330 nM
AEMRETHWL,Kd,[17]; [44],≥ 20000 nM
same,Kd,[18]; [44],≥ 20000 nM
same,Kd,[19]; [44],≥ 20000 nM
same,Kd,[20]; [44],≥ 20000 nM
same,Kd,[21]; [44],≥ 20000 nM
same,Kd,[22]; [44],≥ 20000 nM
same,Kd,[23]; [44],≥ 20000 nM
same,Kd,[24]; [44],≥ 20000 nM
same,Kd,[25]; [44],≥ 20000 nM
same,Kd,[27]; [44],≥ 20000 nM
same,Kd,[28]; source organism: Escherichia coli,6.21 nM
same,Kd,[29]; [44],2000 nM
same,Kd,[5]; [44],≥ 20000 nM
FLYSFFLCI,Kd,[9],5810 nM
same,Kd,[1]; [38],1170 nM
KMSGKTPAV,Kd,[31]; [45],1.7 nM
same,Kd,[32]; [45],1160 nM
LLFVCISYY,Kd,[1]; [38],≥ 78100 nM
LPGADTQGSN,Kd,[2]; [41],2840 nM
KAFKKFPSG,Kd,[15],247 nM
same,Kd,[1]; [38],2990 nM
ELVDTTEMY,Kd,[21]; source organism: Mycobacterium tuberculosis variant bovis,207 nM
same,Kd,[32]; source organism: Mycobacterium tuberculosis H37Rv,324 nM
RLLRMNNEN,Kd,[17]; [46],≥ 20000 nM
same,Kd,[18]; [46],≥ 20000 nM
same,Kd,[19]; [46],≥ 20000 nM
same,Kd,[20]; [46],≥ 20000 nM
same,Kd,[21]; [46],≥ 20000 nM
same,Kd,[22]; [46],≥ 20000 nM
same,Kd,[23]; [46],≥ 20000 nM
same,Kd,[25]; [46],≥ 20000 nM
same,Kd,[26]; [46],≥ 20000 nM
same,Kd,[27]; [46],≥ 20000 nM
same,Kd,[28]; [46],≥ 20000 nM
same,Kd,[29]; [46],≥ 20000 nM
same,Kd,[5]; [46],≥ 20000 nM
AMVLSIVSLF,Kd,[11]; [37],15.1 nM
same,Kd,[12]; [37],580 nM
same,Kd,[1]; [37],4.66 nM
YPKTKLTDWD,Kd,[2]; [40],1310 nM
THPERTLRL,Kd,[33],2500 nM
LLSPVRVPNY,Kd,[34],15100 nM
same,Kd,[16],306 nM
same,Kd,[1]; [41],2.99 nM
EMKLRQKQL,Kd,[25]; [47],38 nM
same,Kd,[31]; [47],≥ 20000 nM
FTIMAAILAY,Kd,[34],973 nM
same,Kd,[35],55 nM
same,Kd,[16],2170 nM
same,Kd,[1]; [41],2.18 nM
same,Kd,[3]; [41],3450 nM
ILWILDRLF,Kd,[32]; source organism: Influenza A virus (A/Memphis/1/1978(H1N1)),≥ 20000 nM
LAYTIGTTHF,Kd,[12]; [41],230 nM
same,Kd,[2]; [41],1410 nM
GSEVPGFCH,Kd,[17]; [42],≥ 20000 nM
same,Kd,[18]; [42],≥ 20000 nM
same,Kd,[19]; [42],≥ 20000 nM
same,Kd,[20]; [42],≥ 20000 nM
same,Kd,[10]; [42],≥ 20000 nM
same,Kd,[21]; [42],≥ 20000 nM
same,Kd,[22]; [42],≥ 20000 nM
same,Kd,[23]; [42],≥ 20000 nM
same,Kd,[24]; [42],≥ 20000 nM
same,Kd,[25]; [42],≥ 20000 nM
same,Kd,[26]; [42],≥ 20000 nM
same,Kd,[27]; [42],≥ 20000 nM
same,Kd,[28]; [42],≥ 20000 nM
same,Kd,[29]; [42],≥ 20000 nM
same,Kd,[5]; [42],≥ 20000 nM
GYCLTRWML,Kd,[10]; source organism: Mammarenavirus lassaense,39.5 nM
EQFPNATAF,Kd,[23]; [48],9840 nM
same,Kd,[26]; [48],42.3 nM
same,Kd,[28]; [48],2970 nM
same,Kd,[36],2370 nM

# Reference: the Immune Epitope Database (IEDB)
